One molecule from patent publication US20210115133A1 (NGM BIOPHARMACEUTICALS, published 2021) can be followed below.

The target of the test is T1, cynomolgus monkey beta klotho expressed on cells (cynomolgus monkey (Macaca fascicularis), UniProt Q86Z14 1-1044 (human entry)).
T1 chain: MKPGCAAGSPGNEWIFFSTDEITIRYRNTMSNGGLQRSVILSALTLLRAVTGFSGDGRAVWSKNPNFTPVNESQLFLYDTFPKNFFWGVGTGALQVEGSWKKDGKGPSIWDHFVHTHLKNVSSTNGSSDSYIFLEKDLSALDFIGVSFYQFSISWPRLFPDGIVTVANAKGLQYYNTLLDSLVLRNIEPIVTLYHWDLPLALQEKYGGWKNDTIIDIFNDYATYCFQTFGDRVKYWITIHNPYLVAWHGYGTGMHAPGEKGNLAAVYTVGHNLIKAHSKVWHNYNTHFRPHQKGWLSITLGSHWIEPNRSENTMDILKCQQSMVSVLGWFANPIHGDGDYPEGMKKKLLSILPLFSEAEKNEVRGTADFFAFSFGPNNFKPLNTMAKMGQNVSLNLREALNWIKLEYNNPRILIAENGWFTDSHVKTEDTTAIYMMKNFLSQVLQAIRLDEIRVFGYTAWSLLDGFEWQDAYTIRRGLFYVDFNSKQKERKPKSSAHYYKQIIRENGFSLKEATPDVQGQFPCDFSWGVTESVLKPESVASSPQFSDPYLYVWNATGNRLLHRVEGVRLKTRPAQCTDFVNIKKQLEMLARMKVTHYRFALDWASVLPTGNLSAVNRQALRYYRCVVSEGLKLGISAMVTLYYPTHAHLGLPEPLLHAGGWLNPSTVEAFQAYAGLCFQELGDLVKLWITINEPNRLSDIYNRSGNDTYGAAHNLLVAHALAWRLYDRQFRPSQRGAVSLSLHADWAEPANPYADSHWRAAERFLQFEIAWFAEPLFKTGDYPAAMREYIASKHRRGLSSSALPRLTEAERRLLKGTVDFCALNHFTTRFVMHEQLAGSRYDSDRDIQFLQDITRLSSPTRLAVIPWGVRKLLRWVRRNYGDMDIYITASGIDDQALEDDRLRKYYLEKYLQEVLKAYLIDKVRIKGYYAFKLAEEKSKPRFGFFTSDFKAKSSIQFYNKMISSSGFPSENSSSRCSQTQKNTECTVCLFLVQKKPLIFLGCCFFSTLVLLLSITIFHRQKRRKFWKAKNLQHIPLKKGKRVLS
The experiment in a line: cell-based or functional assay.

B1: anti-beta klotho monoclonal antibody 3I13 (antibody, V domains shown)
VH: QVQLQQSGPELVKPGASVKISCKTSGYTFTEYTMHWVKQSHGKSLEWIGSFNPDSGGTSYNQKFKGKATLTVDKSSSTAYMELRSLTSEDSAVYYCARDDGYSTRYWYFDVWGAGTTVTVSS
VL: DIQMTQSPASLSASVGETVTITCGASENIYGALNWFQRKQGKSPQLLIYGATILADGMSSRFSGSGSGRQYSLKISSLHPDDVATYYCQNVLSTPYTFGGGTKLEIK
notes: Murine monoclonal antibody from a hybridoma (captured by anti-mouse Fc); also called 3I13 - Alexa488
As for B1, the “HEK293 cynoKLB/R1c reporter assay EC50” value worked out at 438 pM.
